{"source": "patent US20250197448A1", "about": "“CYCLOPEPTIBODIES AND USES THEREOF” (University of Rochester, priority 2022, published 2025)", "key": {"[1]": {"target": "T1, PD-L1 receptor on MDA-MB-231 cells (Homo sapiens, UniProt Q9NZQ7)", "T1 construct": "known to express high levels of PD-L1 on their surface; endogenous in cells; host or cells: MDA-MB-231", "T1 sequence (Q9NZQ7 19-290)": "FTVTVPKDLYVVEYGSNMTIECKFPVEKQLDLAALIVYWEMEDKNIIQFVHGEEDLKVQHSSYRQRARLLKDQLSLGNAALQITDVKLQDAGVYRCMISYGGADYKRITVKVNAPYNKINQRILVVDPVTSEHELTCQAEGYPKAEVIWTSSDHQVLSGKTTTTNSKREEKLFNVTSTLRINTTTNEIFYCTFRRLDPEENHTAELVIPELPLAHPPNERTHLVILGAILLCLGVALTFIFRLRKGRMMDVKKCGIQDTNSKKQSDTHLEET", "experiment": "flow cytometry of MDA-MB-231 cells, PD-L1 labeling with FITC anti-human IgG Fc", "assay_type": "cell-based", "details": "concentration not given at the place", "procedure": "The cells were then incubated with fluorescein-conjugated anti-human IgG Fc antibody and analyzed by flow cytometry. The same experiment was carried out in parallel using commercially available anti-PD-L1 antibody as positive control and various negative controls.\nFlow Cytometry Analysis. […] When confluent, media was aspirated, cells were washed once with 1×DPBS (no calcium, no magnesium) (Gibco). Adherent cells were detached from the petri dish with 1 mL of accutase (Gibco) pre-warmed to 37° C., followed by incubated for 5 min at 37° C. Cells were spun down using centrifugation. Supernatant was removed and cells were washed three times with staining buffer (1×PBS with 0.5% BSA). Cells were resuspended in Eppendorf tubes in 100 μL PBS at a concentration of 107cells per mL. […] Eppendorf tubes were then placed on the platform shaker for gently shaking for 1 hour at room temperature. After 1 hour, cells were spun down using centrifugation, then supernatant was removed. […] Cells were washed as described above, then resuspended in 400 μL staining buffer. […] The cells of interest were gated using Forward and Side scatter (FSC/SSC). 10,000 singlet events were collected for each specimen."}, "[2]": {"experiment": "serum stability assay in human blood serum", "assay_type": "in vitro ADME", "procedure": "The proteolytic stability of cyclopeptibodies cCLP003-Tras-Fc and L2-m5-Tras-Fc were assessed by incubating these proteins in human blood serum, followed by measurement of the cyclopeptibody activity using an in vitro binding assay with plate-immobilized PD-L1 or Sh as described in Example 7 and 8, respectively.\nSerum stability Assay. The human male serum (Sigma-Aldrich) was clarified by centrifugation at 14 000 rpm for 15 min. 50% serum was prepared in phosphate-buffered saline (pH 7.4), then incubated at 37° C. Cyclopeptiodies were dissolved in 30 μL of 50% serum at a final concentration of 1 μM, incubated at 37° C. Serum samples with diluted cyclopeptibodies were prepared in the same way described above over a time course of 30 h for cCLP003-Tras-Fc-His and 24 h for L2-m5-Tras-Fc-His, followed by incubated at 37° C. Intact cyclopeptibodies in serum were quantified using the binding assay described above. In the assay, immobilized PD-L1 or Shh was incubated with 100 μL of serum samples diluted with PBS (1:10 dilution for cCLP003-Tras-Fc-His, 1:100 dilution for L2-m5-Tras-Fc-His). Intact cyclopeptibody in each sample was detected with HRP-conjugate mouse anti-FLAG polyclonal antibody. The absolute concentration of intact cyclopeptibody in each serum sample was quantified using a calibration curve, which was generated from a binding assay in which immobilized PD-L1 or Shh was incubated with cyclopeptibody in serial dilution (0-100 nM for cCLP003-Tras-Fc-His; 0-10 nM for L2-m5-Tras-Fc-His), followed by detected with HRP-conjugate mouse anti-FLAG polyclonal antibody, absorbance at 450 nm was measured as a function of cyclopeptibody concentration."}, "[3]": {"target": "T2, integrin αvβ3 on MDA-MB-231 cells (Homo sapiens, UniProt P05106+P06756)", "T2 construct": "known to express high levels of integrin αvβ3 on their surface; endogenous in cells; host or cells: MDA-MB-231", "T2 sequence (P06756 31-889 limits assumed)": "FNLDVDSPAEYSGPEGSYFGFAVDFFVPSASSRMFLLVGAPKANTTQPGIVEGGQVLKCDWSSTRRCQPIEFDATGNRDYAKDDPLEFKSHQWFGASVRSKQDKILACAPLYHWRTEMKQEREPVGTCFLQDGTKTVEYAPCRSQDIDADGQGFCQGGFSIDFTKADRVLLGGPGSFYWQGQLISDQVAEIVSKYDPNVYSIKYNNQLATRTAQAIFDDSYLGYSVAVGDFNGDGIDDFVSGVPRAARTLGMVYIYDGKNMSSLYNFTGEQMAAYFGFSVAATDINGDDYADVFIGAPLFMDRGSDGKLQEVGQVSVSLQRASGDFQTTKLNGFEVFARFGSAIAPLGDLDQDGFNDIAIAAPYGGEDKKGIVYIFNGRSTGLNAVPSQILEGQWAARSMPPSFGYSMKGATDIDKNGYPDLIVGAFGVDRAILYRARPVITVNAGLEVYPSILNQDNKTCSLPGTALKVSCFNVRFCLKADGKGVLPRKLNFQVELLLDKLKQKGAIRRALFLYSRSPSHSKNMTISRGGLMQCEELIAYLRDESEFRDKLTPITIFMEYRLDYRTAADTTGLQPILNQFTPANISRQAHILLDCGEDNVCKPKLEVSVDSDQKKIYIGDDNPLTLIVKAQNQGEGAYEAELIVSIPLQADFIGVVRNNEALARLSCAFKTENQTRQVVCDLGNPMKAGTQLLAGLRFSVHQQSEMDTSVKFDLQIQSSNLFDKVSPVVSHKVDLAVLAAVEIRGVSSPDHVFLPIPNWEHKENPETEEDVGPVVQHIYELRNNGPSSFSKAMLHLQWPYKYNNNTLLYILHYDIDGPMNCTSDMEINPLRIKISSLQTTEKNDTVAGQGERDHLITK", "T2 sequence (P06756 891-1048 partner limits assumed)": "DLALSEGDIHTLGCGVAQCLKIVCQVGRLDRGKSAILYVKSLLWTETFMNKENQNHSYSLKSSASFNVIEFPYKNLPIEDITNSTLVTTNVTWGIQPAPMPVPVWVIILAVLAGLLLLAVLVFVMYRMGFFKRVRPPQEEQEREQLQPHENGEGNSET", "T2 sequence (P05106 27-788)": "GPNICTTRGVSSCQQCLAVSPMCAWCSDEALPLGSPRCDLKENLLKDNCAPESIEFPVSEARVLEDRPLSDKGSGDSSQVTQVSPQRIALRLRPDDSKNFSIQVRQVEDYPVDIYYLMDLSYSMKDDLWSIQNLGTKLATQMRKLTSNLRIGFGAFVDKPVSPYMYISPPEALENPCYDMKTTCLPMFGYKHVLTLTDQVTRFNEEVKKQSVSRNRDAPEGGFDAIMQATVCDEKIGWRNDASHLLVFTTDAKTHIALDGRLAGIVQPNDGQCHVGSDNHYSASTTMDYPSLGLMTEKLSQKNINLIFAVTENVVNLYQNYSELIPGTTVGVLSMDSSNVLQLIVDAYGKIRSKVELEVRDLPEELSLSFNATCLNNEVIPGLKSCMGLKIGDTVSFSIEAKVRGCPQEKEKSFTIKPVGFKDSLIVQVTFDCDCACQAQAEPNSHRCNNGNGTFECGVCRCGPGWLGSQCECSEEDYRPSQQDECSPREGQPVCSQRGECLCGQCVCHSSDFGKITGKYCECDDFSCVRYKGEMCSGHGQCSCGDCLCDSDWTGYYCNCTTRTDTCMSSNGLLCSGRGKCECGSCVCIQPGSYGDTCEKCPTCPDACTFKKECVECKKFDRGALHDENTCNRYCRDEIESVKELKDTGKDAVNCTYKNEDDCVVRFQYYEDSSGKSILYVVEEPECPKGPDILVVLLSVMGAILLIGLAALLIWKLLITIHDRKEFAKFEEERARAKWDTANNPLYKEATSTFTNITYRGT", "experiment": "flow cytometry of MDA-MB-231 cells, integrin receptor labeling", "assay_type": "cell-based", "details": "for labeling of integrin receptors on MDA-MB-231 cells (in words): FITC anti-IgG1 Fc detection", "procedure": "Flow Cytometry Analysis. Cell line MDA-MB-231 was grown in culture to reach confluency. When confluent, media was aspirated, cells were washed once with 1×DPBS (no calcium, no magnesium) (Gibco). Adherent cells were detached from the petri dish with 1 mL of accutase (Gibco) pre-warmed to 37° C., followed by incubated for 5 min at 37° C. Cells were spun down using centrifugation. Supernatant was removed and cells were washed three times with staining buffer (1×PBS with 0.5% BSA). Cells were resuspended in Eppendorf tubes in 100 μL PBS at a concentration of […]. Cyclopeptibodies or Human anti-PD-L1 antibody (1 μg) (R&D Systems, MAB10355) in staining buffer were then added to the tubes with a concentration of 1.5 μM in 200 μL. Eppendorf tubes were then placed on the platform shaker for gently shaking for 1 hour at room temperature. After 1 hour, cells were spun down using centrifugation, then supernatant was removed. After washing three times, cells were resuspended in 200 μL of Fluorescein (FITC) AffiniPure Goat Anti-Human IgG with working concentration of 30 μg/mL (Jackson ImmunoResearch, 109-095-098), incubated in the dark for 30 min at room temperature. Cells were washed as described above, then resuspended in 400 μL staining buffer. Then cells were analyzed on a BD FACS Accuri C6^+ using a filter of 533/30. The cells of interest were gated using Forward and Side scatter (FSC/SSC). 10,000 singlet events were collected for each specimen.\nAfter purification as described in Example 2, these cyclopeptibodies were used to treat breast cancer cells (MDA-MB-231), which are known to express high levels of integrin αvβ3 on their surface. The cyclopeptibody treated cells were then analyzed by flow cytometry using a procedure similar to that described for the PD-L1-targeting cyclopeptibodies in Example 9."}}, "note": "Starred links: 1 amine or outer side, 2 acyl side, 3 side chain; linkers in the order of their positions; H or OH if unused. Positions of bridges follow the written chain, without caps; N, C: chain ends. Non-standard residues stand in square brackets, D forms with d. No end group written: not given here. O2beY = O-(2-bromoethyl)-tyrosine (p-2beF), reacts with Cys to form a thioether, O=C([C@H](Cc1ccc(OCCBr)cc1)N[*:1])[*:2]; pCaaF = p-(2-chloroacetamido)-phenylalanine, O=C(CCl)Nc1ccc(C[C@H](N[*:1])C(=O)[*:2])cc1", "data": [{"substance": "FLAG-(GS)2-WHFSZNWRWLPC-(Q)6-(Fc)^1-H6 (DYKDDDDKGSGSWHFS[pCaaF]NWRWLPCQQQQQQ; thioether 17-24 (inferred); not fully specified (C-terminus)) [cCLP003-Tras-Fc]", "values": [{"measurement": "staining / labeling of PD-L1 receptors on MDA-MB-231 cells (in words)", "setting": "[1]", "result": "selective labeling of PD-L1 receptors"}, {"measurement": "half-life in human blood serum", "setting": "[2]; 50% serum, 37° C., readout PD-L1 binding assay", "result": "over 24 hrs."}]}, {"substance": "FLAG-(GS)2-CRDRGDYZ-(Q)6-IEGR-(Fc)^1-H6 [RGD5R (pCmF)-Tras-Fc]", "values": [{"measurement": "labeling of integrin receptors on MDA-MB-231 cells (in words)", "setting": "[3]; listed as cRGD5R (pCmF)-Tras-Fc", "result": "selective labeling of the integrin receptors"}, {"measurement": "receptor affinity and labeling efficiency compared to the corresponding cyclic peptides", "setting": "[3]; MDA-MB-231 cells", "result": "superior receptor affinity and labeling efficiency"}]}, {"substance": "FLAG-(GS)2-CRDRGDYZ-(Q)6-IEGR-(Fc)^1-H6 (DYKDDDDKGSGSCRDRGDY[pCaaF]QQQQQQIEGR-{Fc-H6}; thioether 13-20 (inferred)) [RGD5R (pCaaF)-Tras-Fc]", "values": [{"measurement": "labeling of integrin receptors on MDA-MB-231 cells (in words)", "setting": "[3]", "result": "label the cells"}, {"measurement": "labeling of integrin receptors on MDA-MB-231 cells (in words)", "setting": "[3]; listed as cRGD5R (pCaaF)-Tras-Fc", "result": "selective labeling of the integrin receptors"}]}, {"substance": "FLAG-(GS)2-TLSWZEAMDMCTSS-(Q)6-(Fc)^1-H6 (DYKDDDDKGSGSTLSW[O2beY]EAMDMCTSSQQQQQQ-{Fc-H6}; thioether 17-23 (inferred)) [L2-m5-Tras-Fc]", "values": [{"measurement": "half-life in human blood serum, indicated", "setting": "[2]; 50% serum, 37° C., readout Shh binding assay", "result": "30 to 50", "unit": "h"}, {"measurement": "loss in activity in human blood serum", "setting": "[2]; over 24 h, readout Shh binding assay", "result": "no loss in activity"}]}]}
